Assay results as given in patent US20250092426, “CAS ENDONUCLEASES AND RELATED METHODS” (Flagship Pioneering Innovations VII, LLC, published 2025).

Biological target: T1, CasEnd-10 (synthetic construct)
T1 chain: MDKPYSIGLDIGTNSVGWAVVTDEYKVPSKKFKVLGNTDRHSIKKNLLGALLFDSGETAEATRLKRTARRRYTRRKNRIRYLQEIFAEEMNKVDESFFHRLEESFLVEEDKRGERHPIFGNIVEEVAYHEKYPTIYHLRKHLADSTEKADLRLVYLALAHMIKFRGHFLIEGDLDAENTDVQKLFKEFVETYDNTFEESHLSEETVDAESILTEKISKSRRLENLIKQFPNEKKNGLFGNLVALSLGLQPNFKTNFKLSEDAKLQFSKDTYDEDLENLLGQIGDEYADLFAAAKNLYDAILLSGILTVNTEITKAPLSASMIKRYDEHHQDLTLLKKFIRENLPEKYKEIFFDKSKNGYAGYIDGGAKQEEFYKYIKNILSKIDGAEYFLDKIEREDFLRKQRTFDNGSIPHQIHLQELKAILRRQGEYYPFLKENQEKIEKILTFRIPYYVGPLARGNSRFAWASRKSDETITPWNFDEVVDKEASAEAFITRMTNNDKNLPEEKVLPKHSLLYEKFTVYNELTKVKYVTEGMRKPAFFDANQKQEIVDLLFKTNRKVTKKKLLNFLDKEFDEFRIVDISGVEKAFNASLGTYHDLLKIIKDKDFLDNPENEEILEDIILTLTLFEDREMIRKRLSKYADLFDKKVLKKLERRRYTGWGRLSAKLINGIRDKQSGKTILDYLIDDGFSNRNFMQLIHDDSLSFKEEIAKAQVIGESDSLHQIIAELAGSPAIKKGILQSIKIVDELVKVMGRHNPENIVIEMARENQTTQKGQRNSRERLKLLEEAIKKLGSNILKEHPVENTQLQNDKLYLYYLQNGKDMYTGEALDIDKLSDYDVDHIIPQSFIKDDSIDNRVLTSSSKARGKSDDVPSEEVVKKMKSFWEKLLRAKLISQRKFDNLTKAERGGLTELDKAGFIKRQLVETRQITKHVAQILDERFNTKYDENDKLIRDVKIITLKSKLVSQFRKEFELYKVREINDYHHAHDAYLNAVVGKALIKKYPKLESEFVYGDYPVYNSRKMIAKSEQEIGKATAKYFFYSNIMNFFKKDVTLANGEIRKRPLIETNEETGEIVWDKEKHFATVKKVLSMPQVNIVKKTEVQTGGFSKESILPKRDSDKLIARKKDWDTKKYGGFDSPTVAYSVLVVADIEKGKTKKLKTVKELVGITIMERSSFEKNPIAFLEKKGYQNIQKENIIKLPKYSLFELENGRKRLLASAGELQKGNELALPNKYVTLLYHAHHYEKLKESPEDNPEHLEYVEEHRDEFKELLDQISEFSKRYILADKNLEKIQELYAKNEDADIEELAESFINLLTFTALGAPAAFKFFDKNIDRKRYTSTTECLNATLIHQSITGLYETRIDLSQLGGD
Test: cell_activity; +++; K562, second nick guide SEQ 380; PAM not stated
How it was run: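 K562 cells (250,000) nucleofected with plasmids for the reverse transcriptase–Cas endonuclease fusion, template RNA introducing an SNP at endogenous HBB, and second nick guide RNA (250 ng each). Genomic DNA harvested at day 3; percent amplicons with intended edit measured by targeted amplicon sequencing.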

B1: HBB template RNA ; HBB protospacer (ssRNA ; dsDNA)
RNA: CAUGGUGCACCUGACUCCUGGUUUUAGAGCUAGAAAUAGCAAGUUAAAAUAAGGCUAGUCCGUUAUCAACUUGAAAAAGUGGCACCGAGUCGGUGCACGGCAGACUUCUCUGCCGGAGUCAGGUGC
DNA 1: CATGGTGCACCTGACTCCTG
DNA 2: CAGGAGTCAGGTGCACCATG
B1 was tested, and the activity was ≥ 100 % of reference.
